The values that follow come from patent US20180244795A1 (DEBIOPHARM INTERNATIONAL S A, published 2018).

For one experiment, the target named is T1, Human CD37 (human, UniProt P11049 1-281).
T1 construct: Endogenous CD37 in formalin fixed paraffin embedded Daudi, Ramos and Namalwa cell pellets and human tonsil (IHC); also called GP52-40; tetraspanin-26
T1 sequence: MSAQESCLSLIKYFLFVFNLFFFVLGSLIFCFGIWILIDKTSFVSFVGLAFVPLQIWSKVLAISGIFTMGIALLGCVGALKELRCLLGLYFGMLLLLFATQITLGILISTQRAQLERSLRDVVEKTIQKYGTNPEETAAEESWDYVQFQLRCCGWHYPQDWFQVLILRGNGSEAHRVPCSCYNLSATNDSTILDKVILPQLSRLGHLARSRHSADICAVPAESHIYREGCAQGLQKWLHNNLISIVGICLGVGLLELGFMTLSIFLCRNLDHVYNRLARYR
Briefly: IHC on FFPE CD37-positive samples (human tonsil, Daudi, Ramos, Namalwa cells). The protocol: Slides were incubated with ImmunoGen, Inc. generated 1B11-2 antibody, Leica/Novocastra NCL-CD37 antibody (clone CT1) or Leica/Novocastra muIgG1 control antibody at varying concentrations for 15 minutes. Bound antibodies were detected by incubation with the Leica Bond Refine detection system. Following the application of the antibodies, slides were incubated with Post Primary Reagent (rabbit anti-mouse IgG) for 8 minutes, Polymer (goat anti-rabbit polymer) for 8 minutes, and DAB (3,3-diaminobenzidine tetrahydrochloride) for 10 minutes. […] Slides were counterstained with hematoxylin for 5 minutes.
Purified antibody from clone 1B11-2 diluted at 8.4 μg/mL, 4.2 μg/mL, and 2.1 μg/mL in Leica Antibody Diluent (Tris-buffered saline, surfactant, and protein stabilizer with 0.35% ProClin™ 950) was used to stain CD37-positive control samples (human normal tonsil, Daudi cells, Ramos cells, and Namalwa cells). The antibody was evaluated for CD37 specificity as measured by acceptable membrane staining and specificity in CD37-positive samples. This clone was also compared with the NCL-CD37 mouse mAb (clone CT1) diluted to 4.2 μg/mL in Leica Antibody Diluent using the same CD37 positive human tissue and cells. […] A suitable staining concentration of 4.2 μg/mL was experimentally determined for 1B11-2.

The target of experiment [1] is T2, hCD37-ECD-S2-Fc (amino acids 107 to 109 and 138 to 235 of human CD37 fused to murine IgG2a Fc-domain) (human).
T2 construct: Produced in HEK-293T cells; It lacks the S1 segment (amino acids 110-137) of the CD37 large extracellular domain; also called truncated hCD37-ECD-S2-Fc protein
T2 chain: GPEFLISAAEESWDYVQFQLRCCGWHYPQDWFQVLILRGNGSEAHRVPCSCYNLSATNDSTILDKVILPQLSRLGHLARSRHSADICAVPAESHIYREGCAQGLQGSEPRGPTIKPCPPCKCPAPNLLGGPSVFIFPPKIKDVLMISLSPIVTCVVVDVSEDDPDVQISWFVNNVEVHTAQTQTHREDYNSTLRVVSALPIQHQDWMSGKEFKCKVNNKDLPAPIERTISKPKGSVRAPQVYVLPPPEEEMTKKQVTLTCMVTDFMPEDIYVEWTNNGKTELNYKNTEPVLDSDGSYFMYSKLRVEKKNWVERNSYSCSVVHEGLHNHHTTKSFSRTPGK
Briefly: ELISA, native hCD37-ECD-S2-Fc coated on the plate, purified antibody titrated. The protocol:
(§1) Antibody from 1B11-2 was purified using standard protein-A chromatography. An anti-CD37 antibody sold by Leica Biosystems (product code NCL-CD37) was used for comparison. The binding of the anti-CD37 antibodies was examined by ELISA with recombinant CD37 proteins used as the antigen. Each recombinant protein was immobilized at approximately 25-100 ng/well on microtiter plates in Sodium bicarbonate coating buffer (Sigma-Aldrich) using either native or denatured conditions as described above. Plates were washed once with PBS supplemented with 0.05% Tween-20 and blocked with PBS supplemented with 1% bovine serum albumin (BSA). Plates were washed three times with PBS supplemented with 0.05% Tween-20 and purified antibodies were added to the plates. Plates were incubated for one hour at room temperature, washed three times as above, and incubated with HRP-labeled goat anti-murine secondary antibody (Jackson ImmunoResearch, diluted at 1:5,000) for one hour at room temperature. The plates were washed three times as above, and bound HRP-conjugated antibody was detected by adding the HRP-substrate TMB (Bio-FX). Plates were incubated for approximately 10 minutes, and then color development was stopped with stop solution (Bio-FX). Absorbance at 450 nm was measured for each plate in a multiplate reader. Representative results are shown in FIG. 2 for binding to native hCD37-Fc-LAGA and hCD37-LEL. […]
A general note: An ELISA detects its analyte on a solid surface through an enzyme-linked reagent.

For experiment [2], the target named is T3, hCD37-Fc-LAGA (amino acids 107 to 235 of human CD37 fused to human IgG1 Fc-domain) (human).
T3 construct: Produced in HEK-293T cells
Briefly: ELISA, native hCD37-Fc-LAGA coated on the plate, purified antibody titrated (left panel). The protocol:
as §1

For experiment [3], the target named is T4, hCD37-ECD-Fc (amino acids 107 to 235 of human CD37 fused to murine IgG2a Fc-domain) (human).
T4 construct: Produced in HEK-293T cells
T4 chain: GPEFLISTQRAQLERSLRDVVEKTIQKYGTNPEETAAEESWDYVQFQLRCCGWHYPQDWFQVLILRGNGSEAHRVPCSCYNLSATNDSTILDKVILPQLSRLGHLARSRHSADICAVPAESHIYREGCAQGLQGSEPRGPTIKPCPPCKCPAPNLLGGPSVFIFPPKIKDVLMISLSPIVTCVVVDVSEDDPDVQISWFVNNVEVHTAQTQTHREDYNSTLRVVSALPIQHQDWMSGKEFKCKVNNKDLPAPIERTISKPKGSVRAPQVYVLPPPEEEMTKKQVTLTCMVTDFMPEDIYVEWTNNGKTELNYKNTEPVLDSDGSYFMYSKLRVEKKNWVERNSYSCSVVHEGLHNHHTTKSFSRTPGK
Briefly: Western blot after denaturing, reducing SDS PAGE (Gel C), primary 1B11-2, secondary anti-mouse F(ab)2-HRP. The protocol:
The ability to recognize different preparations of Fc-fused CD37-ECDs was tested in denaturing SDS PAGE followed by Western blotting for 1B11-2 (left panel), in direct comparison with a commercially available anti-CD37 antibody (Leica; right panel). Fc-fused CD37-ECD preparations were denatured by incubation in Laemmli buffer containing 70mM β-mercapto-ethanol at 100° C. for 10 min, and were separated by SDS polyacrylamide gel electrophoresis, followed by electrophoretic transfer to PVDF membranes. Membranes were blocked with 5% non-fat milk in Tris-buffered saline with 0.1% Tween-20 (TBST) for 1 hour at room temperature. Primary antibodies were applied overnight, followed by detection with secondary anti-mouse F(ab)₂ conjugated to horse radish peroxidase for 1 h at room temperature. Blots were developed using enhanced chemiluminescence detection following standard procedures. While the Leica antibody recognizes all three Fc-CD37 ECD preparations, the 1B11-2 antibody of the invention recognizes only hCD37-ECD-Fc and hCD37-Fc-LAGA, but not hCD37-ECD-S2-Fc. The hCD37-ECD-S2-Fc construct is missing the S1 segment (amino acids 110-137) of the CD37 ECD. Thus, a region of amino acids 110-137 is critical for epitope recognition by 1B11-2, but not by the Leica antibody.

B1: muCD37-1B11-2 mouse monoclonal anti-human CD37 antibody (antibody, mouse IgG1, kappa, V domains shown)
VH: EVQLLQSGPELVKPGASVKISCKASGYSFTGYFMNWVIQSHGKGLEWIGRINPYNGDTFYNQKFKGKATLTVDKSSTTAHMELLSLTSEDSAVYYCGSRGIVASSRFFDVWGAGTSVIVSS
VL: SIVMTQTPKFLLVSAGDRVTITCKASQGVSNDVDWYQQKPGQSPKLLIYYASNRYTGVPDRFTGSGYGTDFTFSISTVQAEDLAVYFCHQDYTSPTFGGGTKLEIKR
notes: Murine IgG1/kappa from hybridoma; also called antibody 1B11-2; CD37 1B11-2 Mouse mAb
Broadly, the EC50 (read off the curve) is the concentration that produces a half-maximal response. B1: the binding result was “binds” with Human CD37, “no binding (tested: 1e-7 M)” in experiment [1] and “binds” in experiment [3]. For the same molecule, the “EC50 (read off the curve)” value in experiment [2] was around 0.1 nM.
